Assay results reported in the supplement of paper PMC10065799, “High-throughput profiling of sequence recognition by tyrosine kinases and SH2 domains using bacterial peptide display” (eLife, 2023).

Legend:
c-Src = assay: phosphorylation enrichment, bacterial display (enrichment ratio); higher = better substrate or ligand; peptides without Tyr show the background
AncSZ = assay: as above
Fer (mouse) = assay: as above
FGFR3 = FGFR3 (UniProt P22607); assay: as above
c-Abl (mouse) = assay: as above
Hck = Hck (UniProt P08631); assay: as above
FGFR1 = FGFR1 (UniProt P11362); assay: as above
Fyn = Fyn (UniProt P06241); assay: as above
Fes = Fes (UniProt P07332); assay: as above
EPHB1 = EPHB1 (UniProt P54762); assay: as above
Jak2 = Jak2 (UniProt O60674); assay: as above
EPHB2 = EPHB2 (UniProt P29323); assay: as above
MERTK = MERTK (UniProt Q12866); assay: as above
SHP2-C SH2 = assay: SH2 binding enrichment of the phosphorylated peptide, bacterial display (enrichment ratio); higher = better substrate or ligand; peptides without Tyr show the background
c-Src SH2 = assay: as above
Grb2 SH2 = Grb2 SH2 (UniProt P62993); assay: as above
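Throughout, for SH2 binding enrichment of the phosphorylated peptide, bacterial display: peptide library displayed on the E. coli surface as eCPX fusions, selected cells deep-sequenced, score is each peptide's frequency after selection divided by its frequency in the input.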
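Throughout, for phosphorylation enrichment, bacterial display: 11-residue human phosphosite peptides and single-mutation variants displayed on the E. coli surface, counted by deep sequencing, each peptide's frequency after selection divided by its frequency in the unselected input library; frequency after pTyr selection over input frequency; kinase dosed for 20-30% of maximal phosphorylation in three min.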

Sequence of FGFR1 (P11362 whole entry, looked up): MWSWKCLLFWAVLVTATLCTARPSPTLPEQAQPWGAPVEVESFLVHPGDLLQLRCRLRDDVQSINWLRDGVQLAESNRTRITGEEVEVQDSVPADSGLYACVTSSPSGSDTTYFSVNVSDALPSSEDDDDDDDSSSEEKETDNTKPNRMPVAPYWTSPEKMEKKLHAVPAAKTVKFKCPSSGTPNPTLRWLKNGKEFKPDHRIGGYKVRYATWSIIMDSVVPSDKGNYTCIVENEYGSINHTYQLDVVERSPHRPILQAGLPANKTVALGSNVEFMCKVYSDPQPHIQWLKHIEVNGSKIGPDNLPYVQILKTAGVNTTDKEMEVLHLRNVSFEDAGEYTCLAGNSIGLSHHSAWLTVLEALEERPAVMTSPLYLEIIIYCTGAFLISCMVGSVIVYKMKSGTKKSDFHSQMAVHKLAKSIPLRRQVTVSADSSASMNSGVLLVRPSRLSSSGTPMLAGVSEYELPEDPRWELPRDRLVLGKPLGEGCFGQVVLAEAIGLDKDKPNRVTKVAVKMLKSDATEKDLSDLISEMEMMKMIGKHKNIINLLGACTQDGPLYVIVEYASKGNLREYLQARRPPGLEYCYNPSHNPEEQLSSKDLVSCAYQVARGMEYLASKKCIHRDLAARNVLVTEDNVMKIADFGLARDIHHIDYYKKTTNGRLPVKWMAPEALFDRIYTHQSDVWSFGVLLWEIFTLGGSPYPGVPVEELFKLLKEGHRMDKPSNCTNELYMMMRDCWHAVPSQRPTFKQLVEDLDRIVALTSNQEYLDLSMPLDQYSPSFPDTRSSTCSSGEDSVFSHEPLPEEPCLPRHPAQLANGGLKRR
Sequence of Jak2 (O60674 whole entry, looked up): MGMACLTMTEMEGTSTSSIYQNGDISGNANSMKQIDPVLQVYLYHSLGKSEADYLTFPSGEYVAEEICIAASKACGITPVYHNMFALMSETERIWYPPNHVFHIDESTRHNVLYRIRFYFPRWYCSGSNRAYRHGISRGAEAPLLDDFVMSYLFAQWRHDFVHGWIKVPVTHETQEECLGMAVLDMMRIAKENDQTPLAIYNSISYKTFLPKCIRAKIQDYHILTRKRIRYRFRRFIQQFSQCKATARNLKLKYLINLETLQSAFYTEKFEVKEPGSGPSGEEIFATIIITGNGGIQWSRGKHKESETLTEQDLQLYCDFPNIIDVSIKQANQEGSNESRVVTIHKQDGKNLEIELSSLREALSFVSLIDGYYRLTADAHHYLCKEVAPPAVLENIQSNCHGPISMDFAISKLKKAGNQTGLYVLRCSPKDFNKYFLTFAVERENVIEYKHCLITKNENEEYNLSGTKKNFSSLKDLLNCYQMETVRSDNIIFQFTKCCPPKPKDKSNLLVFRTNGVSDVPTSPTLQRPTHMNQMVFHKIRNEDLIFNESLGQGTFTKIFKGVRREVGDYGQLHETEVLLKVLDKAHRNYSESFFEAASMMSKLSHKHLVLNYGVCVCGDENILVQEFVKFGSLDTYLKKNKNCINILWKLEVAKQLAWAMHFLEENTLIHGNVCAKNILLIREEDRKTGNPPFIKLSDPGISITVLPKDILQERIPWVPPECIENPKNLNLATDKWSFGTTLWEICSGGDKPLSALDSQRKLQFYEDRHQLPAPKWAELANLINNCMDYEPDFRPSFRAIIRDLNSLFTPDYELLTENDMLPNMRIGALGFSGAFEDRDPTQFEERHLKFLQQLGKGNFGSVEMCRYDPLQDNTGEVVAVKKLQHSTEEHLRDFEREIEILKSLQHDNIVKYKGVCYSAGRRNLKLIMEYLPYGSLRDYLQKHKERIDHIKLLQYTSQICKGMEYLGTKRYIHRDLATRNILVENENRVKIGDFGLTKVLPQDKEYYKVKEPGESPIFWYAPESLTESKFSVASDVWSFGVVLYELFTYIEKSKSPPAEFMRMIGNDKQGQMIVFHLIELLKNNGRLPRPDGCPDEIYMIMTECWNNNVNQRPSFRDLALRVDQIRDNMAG
Sequence of EPHB2 (P29323 whole entry, looked up): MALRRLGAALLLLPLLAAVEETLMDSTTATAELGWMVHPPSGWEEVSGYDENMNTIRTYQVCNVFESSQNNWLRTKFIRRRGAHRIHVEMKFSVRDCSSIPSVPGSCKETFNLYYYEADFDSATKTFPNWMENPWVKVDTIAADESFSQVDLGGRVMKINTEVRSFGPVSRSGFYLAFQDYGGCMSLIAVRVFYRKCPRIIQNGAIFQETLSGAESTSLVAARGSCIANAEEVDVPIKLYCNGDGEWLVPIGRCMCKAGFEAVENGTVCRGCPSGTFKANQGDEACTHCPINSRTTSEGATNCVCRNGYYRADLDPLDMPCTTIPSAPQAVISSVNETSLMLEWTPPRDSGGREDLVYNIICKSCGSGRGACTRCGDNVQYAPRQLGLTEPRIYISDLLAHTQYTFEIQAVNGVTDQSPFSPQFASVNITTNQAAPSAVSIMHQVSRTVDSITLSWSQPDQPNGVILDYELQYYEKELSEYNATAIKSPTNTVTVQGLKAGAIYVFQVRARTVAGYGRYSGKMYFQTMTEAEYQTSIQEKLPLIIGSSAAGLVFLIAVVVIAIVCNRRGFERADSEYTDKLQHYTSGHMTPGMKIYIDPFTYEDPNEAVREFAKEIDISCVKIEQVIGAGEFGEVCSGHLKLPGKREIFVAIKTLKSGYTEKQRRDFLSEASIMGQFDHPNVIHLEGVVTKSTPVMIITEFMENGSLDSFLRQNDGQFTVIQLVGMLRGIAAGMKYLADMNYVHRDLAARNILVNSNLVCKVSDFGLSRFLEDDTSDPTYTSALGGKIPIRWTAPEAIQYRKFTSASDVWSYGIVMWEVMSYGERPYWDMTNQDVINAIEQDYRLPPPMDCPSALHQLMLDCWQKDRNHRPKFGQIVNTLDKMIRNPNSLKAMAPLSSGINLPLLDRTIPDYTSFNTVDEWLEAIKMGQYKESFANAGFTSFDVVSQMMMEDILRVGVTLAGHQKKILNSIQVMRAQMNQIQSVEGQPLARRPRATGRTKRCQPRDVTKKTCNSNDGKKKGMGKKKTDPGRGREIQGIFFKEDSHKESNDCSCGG
Sequence of EPHB1 (P54762 whole entry, looked up): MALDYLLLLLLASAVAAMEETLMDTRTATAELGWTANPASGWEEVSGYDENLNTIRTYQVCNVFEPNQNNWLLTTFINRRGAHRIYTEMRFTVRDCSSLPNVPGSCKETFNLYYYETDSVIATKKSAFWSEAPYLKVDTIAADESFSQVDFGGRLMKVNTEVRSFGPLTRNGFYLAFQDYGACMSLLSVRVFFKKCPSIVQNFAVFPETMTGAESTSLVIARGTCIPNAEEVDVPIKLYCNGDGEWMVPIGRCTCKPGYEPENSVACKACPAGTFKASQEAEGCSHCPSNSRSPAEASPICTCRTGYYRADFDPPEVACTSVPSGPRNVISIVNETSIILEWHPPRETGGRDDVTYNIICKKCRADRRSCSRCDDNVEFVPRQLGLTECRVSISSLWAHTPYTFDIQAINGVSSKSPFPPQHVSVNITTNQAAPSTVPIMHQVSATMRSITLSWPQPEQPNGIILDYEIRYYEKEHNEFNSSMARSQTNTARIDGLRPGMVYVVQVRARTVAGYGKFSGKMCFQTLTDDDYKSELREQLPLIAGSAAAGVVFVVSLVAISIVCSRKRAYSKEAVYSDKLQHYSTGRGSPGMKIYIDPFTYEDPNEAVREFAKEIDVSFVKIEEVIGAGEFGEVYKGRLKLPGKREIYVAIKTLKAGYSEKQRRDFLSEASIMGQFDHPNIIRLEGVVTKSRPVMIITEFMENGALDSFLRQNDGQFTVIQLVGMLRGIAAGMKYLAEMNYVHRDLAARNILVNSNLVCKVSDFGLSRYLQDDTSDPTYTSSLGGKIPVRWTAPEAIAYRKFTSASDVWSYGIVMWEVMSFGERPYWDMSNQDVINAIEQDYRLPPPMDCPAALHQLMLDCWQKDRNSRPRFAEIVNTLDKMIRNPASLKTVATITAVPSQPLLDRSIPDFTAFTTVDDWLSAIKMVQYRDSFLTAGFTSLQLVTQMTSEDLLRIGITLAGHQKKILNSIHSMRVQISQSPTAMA
Sequence of Fes (P07332 whole entry, looked up): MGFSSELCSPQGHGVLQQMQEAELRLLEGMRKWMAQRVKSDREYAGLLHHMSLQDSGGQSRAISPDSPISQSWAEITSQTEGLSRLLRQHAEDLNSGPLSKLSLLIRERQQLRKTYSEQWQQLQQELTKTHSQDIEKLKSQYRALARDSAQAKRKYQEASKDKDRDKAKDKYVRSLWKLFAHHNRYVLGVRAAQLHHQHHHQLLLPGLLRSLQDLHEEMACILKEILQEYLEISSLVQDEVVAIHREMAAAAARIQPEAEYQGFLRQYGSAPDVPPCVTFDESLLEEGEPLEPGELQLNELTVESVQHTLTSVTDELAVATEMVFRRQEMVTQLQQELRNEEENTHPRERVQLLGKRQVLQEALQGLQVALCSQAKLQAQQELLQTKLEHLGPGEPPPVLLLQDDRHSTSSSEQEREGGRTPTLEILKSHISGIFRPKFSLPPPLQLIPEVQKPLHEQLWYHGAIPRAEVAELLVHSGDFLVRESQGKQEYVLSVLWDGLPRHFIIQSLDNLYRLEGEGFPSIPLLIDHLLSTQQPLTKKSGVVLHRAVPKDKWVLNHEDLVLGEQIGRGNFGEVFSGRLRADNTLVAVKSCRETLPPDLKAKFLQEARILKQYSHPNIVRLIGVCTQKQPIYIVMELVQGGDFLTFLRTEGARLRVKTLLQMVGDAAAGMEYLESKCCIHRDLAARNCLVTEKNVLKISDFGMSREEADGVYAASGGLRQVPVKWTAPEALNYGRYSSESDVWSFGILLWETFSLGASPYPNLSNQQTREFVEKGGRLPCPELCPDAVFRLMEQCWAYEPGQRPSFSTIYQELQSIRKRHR
Sequence of Grb2 SH2 (P62993 whole entry, looked up, the tested form may be a part): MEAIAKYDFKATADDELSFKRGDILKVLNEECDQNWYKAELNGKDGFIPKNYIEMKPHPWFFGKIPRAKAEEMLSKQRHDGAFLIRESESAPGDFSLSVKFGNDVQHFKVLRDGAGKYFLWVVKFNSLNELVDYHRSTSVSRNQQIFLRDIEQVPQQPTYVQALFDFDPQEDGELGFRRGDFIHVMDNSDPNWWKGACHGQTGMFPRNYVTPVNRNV

| Sequence | phosphorylation enrichment (c-Src) | phosphorylation enrichment (AncSZ) | phosphorylation enrichment (Fer (mouse)) | phosphorylation enrichment (FGFR3) | phosphorylation enrichment (c-Abl (mouse)) | phosphorylation enrichment (Hck) | phosphorylation enrichment (FGFR1) | phosphorylation enrichment (Fyn) | phosphorylation enrichment (Fes) | phosphorylation enrichment (EPHB1) | phosphorylation enrichment (Jak2) | phosphorylation enrichment (EPHB2) | phosphorylation enrichment (MERTK) | SH2 binding enrichment (SHP2-C SH2) | SH2 binding enrichment (c-Src SH2) | SH2 binding enrichment (Grb2 SH2) |
| --- | --- | --- | --- | --- | --- | --- | --- | --- | --- | --- | --- | --- | --- | --- | --- | --- |
| PSELFYSKIGP [SMG1_Y2254_YF] | 5.2 | 1.21 | 10.4 | 3.84 | 2.46 | 10.6 | 5.34 | 3.97 | 1.2 | 2.31 | 2.1 | 2.08 | 15.5 | 2.31 | 4.64 | 1.03 |
| EACPSYSHVVL [CHST6_Y168_R166P] | 0.507 | 0.7 | 6 | 0.51 | 0.54 | 0.463 | 0.538 | 0.411 | 0.702 | 0.492 | 0.527 | 0.521 | 0.486 | 1.75 | 1.52 | 1 |
| ETGEPCRLSPE [EIF4G1_Y311_Y311C] | 0.553 | 1.13 | 0.55 | 0.846 | 1.01 | 0.689 | 0.612 | 0.531 | 1.31 | 0.62 | 1.15 | 0.674 | 0.536 | 0.618 | 0.664 | 0.866 |
| KLPYLYDDPFS [GPX2_Y127_P126L] | 0.906 | 1.22 | 1.28 | 0.689 | 1.12 | 1.46 | 0.489 | 0.695 | 1.3 | 3.22 | 0.997 | 4.17 | 2.58 | 0.797 | 2.42 | 0.765 |
| LYNQDYPIHSV [GATM_Y227] | 0.901 | 1.17 | 0.732 | 1.44 | 0.86 | 0.966 | 2.26 | 1.31 | 1.23 | 0.866 | 0.984 | 1.03 | 0.771 | 0.788 | 0.481 | 1.02 |
| NQLNDYIFSFD [RARS1_Y516_R512Q] | 0.598 | 1.42 | 0.461 | 0.807 | 0.733 | 0.546 | 0.946 | 0.743 | 1.27 | 0.525 | 1.08 | 0.549 | 0.46 | 0.632 | 0.553 | 0.928 |
| LFFFSYLLKNH [PTEN_Y180_V175L_YF] | 1 | 1.39 | 0.672 | 0.671 | 1.66 | 0.705 | 0.577 | 0.346 | 1.98 | 0.443 | 2.28 | 0.976 | 0.584 | 0.696 | 0.769 | 0.901 |
| PINLYYLMDLS [ITGB2_Y131_D128N] | 4.42 | 3.58 | 5.63 | 15.7 | 1.44 | 4.27 | 16.3 | 4.6 | 2.62 | 8.27 | 6.89 | 6.74 | 11.6 | 1.16 | 0.624 | 1.22 |
| RENGPYYTSYP [GDAP2_Y487] | 3.17 | 1.17 | 0.618 | 3.32 | 1.55 | 1.98 | 3.44 | 2.55 | 1.05 | 0.896 | 0.863 | 1.45 | 5.69 | 0.597 | 0.955 | 1.09 |
| RRVLVYGGRGA [QDPR_Y16] | 0.674 | 1.1 | 0.716 | 0.702 | 0.575 | 0.597 | 0.357 | 0.563 | 0.681 | 0.488 | 0.361 | 0.822 | 0.549 | 0.683 | 0.407 | 0.608 |
| YSGIYYKPESL [L2HGDH_Y103_H98Y] | 6.07 | 2.36 | 9.95 | 9.82 | 29.5 | 8.46 | 11 | 9.17 | 0.968 | 9.38 | 6.33 | 12.4 | 10.9 | 10.5 | 6.04 | 0.831 |
| WVYNHYRWFIW [BRCA2_Y2624_I2627F] | 0.433 | 1.12 | 0.49 | 0.667 | 0.777 | 0.403 | 0.406 | 0.441 | 1.24 | 0.506 | 1.15 | 0.466 | 0.418 | 0.733 | 0.666 | 0.966 |
| KLQKKYGPIFS [CYP17A1_Y60_YF] | 0.489 | 0.555 | 0.324 | 0.415 | 0.505 | 0.383 | 0.308 | 0.38 | 0.503 | 0.377 | 0.583 | 0.39 | 0.39 | 0.754 | 0.461 | 0.882 |
| LLREWYLQDPY [SIX3_Y225] | 1.11 | 1.52 | 0.938 | 1.12 | 1.11 | 0.85 | 0.867 | 1.08 | 1.52 | 0.947 | 1.11 | 0.928 | 0.606 | 1.28 | 0.76 | 1.43 |
| NTSKMYIPHTD [EXPH5_Y782_D777N] | 0.474 | 0.663 | 0.469 | 0.523 | 0.532 | 0.462 | 0.415 | 0.45 | 0.609 | 0.35 | 0.562 | 0.423 | 0.462 | 0.68 | 0.386 | 0.897 |
| NVDGKYSFLKV [GRM3_Y478_G475D_YF] | 0.439 | 0.624 | 0.48 | 0.505 | 0.534 | 0.431 | 0.426 | 0.383 | 0.824 | 0.394 | 0.719 | 0.356 | 0.508 | 0.944 | 0.826 | 1.06 |
| LIGTPYWMAPE [PAK5_Y608_V604I] | 2.6 | 1.74 | 0.917 | 3.65 | 0.987 | 1 | 4.64 | 0.825 | 1.51 | 1.4 | 1.17 | 1 | 1.32 | 3.03 | 0.882 | 1.23 |

| Sequence | phosphorylation enrichment (c-Src) | phosphorylation enrichment (AncSZ) | phosphorylation enrichment (Fer (mouse)) | phosphorylation enrichment (FGFR3) | phosphorylation enrichment (c-Abl (mouse)) | phosphorylation enrichment (Hck) | phosphorylation enrichment (FGFR1) | phosphorylation enrichment (Fyn) | phosphorylation enrichment (Fes) | phosphorylation enrichment (EPHB1) | phosphorylation enrichment (Jak2) | phosphorylation enrichment (EPHB2) | phosphorylation enrichment (MERTK) | SH2 binding enrichment (SHP2-C SH2) | SH2 binding enrichment (c-Src SH2) | SH2 binding enrichment (Grb2 SH2) |
| --- | --- | --- | --- | --- | --- | --- | --- | --- | --- | --- | --- | --- | --- | --- | --- | --- |
| VFFFSYLLKNH [PTEN_Y180_YF] | 0.426 | 1.06 | 0.537 | 0.729 | 0.918 | 0.391 | 0.643 | 0.373 | 1.57 | 0.559 | 1.11 | 0.519 | 0.362 | 0.896 | 0.616 | 0.982 |
| TSPALYRLDLD [TRIL_Y352_A347T] | 1.44 | 0.943 | 0.499 | 0.721 | 0.741 | 0.817 | 0.529 | 0.74 | 1.24 | 0.567 | 0.859 | 0.51 | 0.395 | 0.465 | 0.36 | 0.685 |
| GESKDYALHVG [SVIL_Y185] | 0.416 | 0.606 | 0.436 | 0.532 | 0.502 | 0.461 | 0.469 | 0.463 | 0.798 | 1.92 | 0.461 | 0.721 | 0.468 | 0.612 | 0.452 | 0.815 |
| VNCHQYDGLVE [ATP2A2_Y407] | 0.531 | 1.06 | 0.598 | 0.818 | 0.672 | 0.651 | 0.614 | 0.626 | 1.2 | 0.658 | 0.848 | 0.659 | 0.499 | 0.983 | 12.5 | 1.18 |
| CTTVHYNYMCN [TP53_Y234_I232V] | 0.492 | 0.816 | 0.77 | 0.622 | 0.557 | 0.468 | 0.52 | 0.448 | 0.915 | 0.542 | 0.768 | 0.496 | 0.469 | 3.24 | 6.3 | 1.08 |
| NGRQCYSCRGN [PLAUR_Y217_K220R] | 0.294 | 0.375 | 0.274 | 0.31 | 0.374 | 0.35 | 0.356 | 0.299 | 0.461 | 0.261 | 0.39 | 0.319 | 0.346 | 0.769 | 1.31 | 1.03 |
| TSEASYYKSLN [NGEF_Y288] | 0.49 | 0.743 | 0.464 | 0.707 | 0.658 | 0.407 | 0.516 | 0.464 | 0.789 | 0.575 | 0.802 | 0.498 | 0.535 | 0.518 | 0.528 | 0.684 |
| LIQRNYKLTAQ [ALPK2_Y1975_A1978T] | 0.706 | 0.86 | 0.393 | 0.511 | 1.2 | 0.507 | 0.465 | 0.462 | 1.12 | 0.479 | 1.24 | 0.604 | 0.567 | 0.952 | 0.532 | 1.24 |
| VIKDKYPKAHY [APTX_Y209_R213H] | 0.377 | 0.449 | 0.358 | 0.505 | 0.561 | 0.273 | 0.34 | 0.278 | 0.599 | 0.268 | 0.579 | 0.359 | 0.285 | 1.11 | 0.956 | 1.19 |
| IGEGTYRQVYK [CDK13_Y716_G717R] | 0.521 | 0.492 | 0.449 | 0.391 | 0.492 | 0.411 | 0.42 | 0.368 | 0.546 | 0.289 | 0.655 | 0.465 | 0.319 | 0.89 | 0.589 | 0.874 |
| VDGFVYKLHPS [GCK_Y413_S411F] | 0.643 | 0.844 | 0.368 | 0.55 | 0.562 | 0.419 | 0.407 | 0.53 | 0.962 | 0.434 | 0.999 | 0.484 | 0.288 | 0.55 | 0.519 | 0.693 |
| SHNKFYMLVAR [MFSD8_Y134_YF] | 0.36 | 1.15 | 0.607 | 0.875 | 0.705 | 0.475 | 0.532 | 0.452 | 1.15 | 0.673 | 1.1 | 0.607 | 0.479 | 1.72 | 1.04 | 1.4 |
| RLLRGYNQSAY [HLA-C_Y137_D138N] | 0.267 | 0.44 | 0.321 | 0.499 | 0.36 | 0.507 | 0.386 | 0.41 | 0.412 | 0.538 | 0.307 | 0.454 | 0.275 | 1.09 | 0.825 | 1.11 |
| RRETPYGGGGG [FUS_Y526_R524T] | 0.628 | 0.769 | 0.438 | 1.07 | 0.487 | 0.604 | 0.957 | 0.718 | 0.68 | 0.568 | 0.551 | 0.62 | 0.721 | 0.54 | 0.477 | 0.685 |
| VNRSGYTLIRK [ATP6V0A2_Y688] | 0.43 | 0.64 | 0.366 | 0.452 | 0.568 | 0.429 | 0.315 | 0.533 | 0.672 | 0.333 | 0.429 | 0.444 | 0.386 | 0.814 | 1.74 | 0.56 |
| VIVRMYDYHVL [RPF2_Y109_G106V] | 0.498 | 1.2 | 4.25 | 2.12 | 0.746 | 0.587 | 3.25 | 0.499 | 1.04 | 2.24 | 0.975 | 3.26 | 2.39 | 1.53 | 1.36 | 1.54 |
